Reference: patent publication US20230302148A1, “PHARMACEUTICAL COMPOSITION COMPRISING LONG-ACTING CONJUGATE OF TRIPLE GLUCAGON/GLP-1/GIP RECEPTOR AGONIST” (HANMI PHARM. CO., LTD., priority 2020, published 2023)
Bridges are numbered along the chain shown (N, C = ends). Where no end group is shown, it is not given here. [ ]: non-standard residue; d: D form. The star is where a group is joined. Acetyl(2-(4-imidazolyl)) = O=C(Cc1c[nH]cn1)*; Aib = CC(C)(N)C(=O)O

T1: human GIP receptor (human, UniProt P48546 22-466)
T1 sequence (looked up): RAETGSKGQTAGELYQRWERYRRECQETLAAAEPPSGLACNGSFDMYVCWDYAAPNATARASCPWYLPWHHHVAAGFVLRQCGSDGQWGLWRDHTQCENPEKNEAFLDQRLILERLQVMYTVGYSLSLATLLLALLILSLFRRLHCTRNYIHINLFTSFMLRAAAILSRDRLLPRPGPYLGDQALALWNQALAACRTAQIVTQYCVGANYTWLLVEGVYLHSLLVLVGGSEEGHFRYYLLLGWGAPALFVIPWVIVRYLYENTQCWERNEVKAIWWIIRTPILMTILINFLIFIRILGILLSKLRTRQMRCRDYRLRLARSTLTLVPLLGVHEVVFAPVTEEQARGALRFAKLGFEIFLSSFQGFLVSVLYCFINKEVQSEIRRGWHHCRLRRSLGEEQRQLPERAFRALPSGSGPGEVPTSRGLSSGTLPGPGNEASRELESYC


target: human GCG receptor (human, UniProt P47871 26-477); test: cell-based or functional assay
Sequence (P47871 26-477): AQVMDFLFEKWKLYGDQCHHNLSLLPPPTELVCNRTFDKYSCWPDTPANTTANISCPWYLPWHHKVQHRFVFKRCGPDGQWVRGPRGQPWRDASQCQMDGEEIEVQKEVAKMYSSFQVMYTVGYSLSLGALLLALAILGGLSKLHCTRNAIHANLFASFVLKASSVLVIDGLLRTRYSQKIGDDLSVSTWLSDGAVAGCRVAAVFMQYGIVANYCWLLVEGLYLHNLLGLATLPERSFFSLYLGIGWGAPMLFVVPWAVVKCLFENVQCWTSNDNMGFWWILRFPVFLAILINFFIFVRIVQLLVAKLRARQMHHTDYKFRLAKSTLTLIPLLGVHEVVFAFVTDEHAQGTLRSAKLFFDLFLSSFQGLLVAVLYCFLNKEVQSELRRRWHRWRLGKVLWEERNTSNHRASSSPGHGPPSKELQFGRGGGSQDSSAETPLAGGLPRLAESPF

Binder | In vitro activity relative to native peptide (%) vs. Glucagon [%]
H[Aib]QGTFTSDVSSYLLGQQQKEFIAWLVKGGGPSSGAPPPSC [triple agonist of SEQ ID NO: 5] | < 0.1
H[Aib]QGTFTSDYSKYLDGQHAQCFVAWLLAGGGPSSGAPPPS [triple agonist of SEQ ID NO: 39] | 0.53
H[Aib]QGTFTSDKSKYLDERACQDFVQWLLDGGPSSGAPPPS [triple agonist of SEQ ID NO: 40] | < 0.1
Y[Aib]QGTFTSDYSKYLDEKRAKEFVQWLLDHHCSSGQPPPS (bridge 16-20) [triple agonist of SEQ ID NO: 43] | 88.4
H[Aib]QGTFTSDYSIAMDEIHQKDFVNWLLNTKC (bridge 16-20) [triple agonist of SEQ ID NO: 35] | < 0.1
[Acetyl(2-(4-imidazolyl))][Aib]QGTFTSDKSSYLDERAAQDFVQWLLDGGPSSGAPPPSS (not fully specified) [triple agonist of SEQ ID NO: 38] | 1
Y[Aib]QGTFTSDYSKYLDEKRAKEFVQWLLDHHPSSGQPPPSC (bridge 16-20) [triple agonist of SEQ ID NO: 42] | 206
H[Aib]QGTFTSDYSKYLDEKRQKEFVNWLLAQKC (bridge 16-20) [triple agonist of SEQ ID NO: 34] | 0.92
H[Aib]QGTFTSDKSKYLDECAAQDFVQWLLDGGPSSGAPPPS [triple agonist of SEQ ID NO: 41] | < 0.1
H[Aib]QGTFTSDVSSYLLGQQQKEFIAWLVKGC [triple agonist of SEQ ID NO: 4] | < 0.1
H[Aib]QGTFTSDVSSYLDGQAAKEFIAWLVKGC [triple agonist of SEQ ID NO: 1] | < 0.1
H[Aib]QGTFTSDYSKYLDECRQKEFVQWLLNGGPSSGAPPPSG (bridge 16-20) [triple agonist of SEQ ID NO: 37] | 6.21
H[Aib]QGTFTSDYSKYLCEKRQKEFVQWLLNGGPSSGAPPPSG (bridge 16-20) [triple agonist of SEQ ID NO: 36] | 0.39

target: T1, human GIP receptor; test: cell-based or functional assay

Binder | In vitro activity relative to native peptide (%) vs. GIP [%]
H[Aib]QGTFTSDVSSYLLGQQQKEFIAWLVKGGGPSSGAPPPSC [triple agonist of SEQ ID NO: 5] | < 0.1
H[Aib]QGTFTSDYSKYLDGQHAQCFVAWLLAGGGPSSGAPPPS [triple agonist of SEQ ID NO: 39] | < 0.1
H[Aib]QGTFTSDKSKYLDERACQDFVQWLLDGGPSSGAPPPS [triple agonist of SEQ ID NO: 40] | < 0.1
Y[Aib]QGTFTSDYSKYLDEKRAKEFVQWLLDHHCSSGQPPPS (bridge 16-20) [triple agonist of SEQ ID NO: 43] | 3.7
H[Aib]QGTFTSDYSIAMDEIHQKDFVNWLLNTKC (bridge 16-20) [triple agonist of SEQ ID NO: 35] | 1.3
[Acetyl(2-(4-imidazolyl))][Aib]QGTFTSDKSSYLDERAAQDFVQWLLDGGPSSGAPPPSS (not fully specified) [triple agonist of SEQ ID NO: 38] | 1
Y[Aib]QGTFTSDYSKYLDEKRAKEFVQWLLDHHPSSGQPPPSC (bridge 16-20) [triple agonist of SEQ ID NO: 42] | 7.8
H[Aib]QGTFTSDYSKYLDEKRQKEFVNWLLAQKC (bridge 16-20) [triple agonist of SEQ ID NO: 34] | 0.6
H[Aib]QGTFTSDKSKYLDECAAQDFVQWLLDGGPSSGAPPPS [triple agonist of SEQ ID NO: 41] | < 0.1
H[Aib]QGTFTSDVSSYLLGQQQKEFIAWLVKGC [triple agonist of SEQ ID NO: 4] | < 0.1
H[Aib]QGTFTSDVSSYLDGQAAKEFIAWLVKGC [triple agonist of SEQ ID NO: 1] | < 0.1
H[Aib]QGTFTSDYSKYLDECRQKEFVQWLLNGGPSSGAPPPSG (bridge 16-20) [triple agonist of SEQ ID NO: 37] | 2.2
H[Aib]QGTFTSDYSKYLCEKRQKEFVQWLLNGGPSSGAPPPSG (bridge 16-20) [triple agonist of SEQ ID NO: 36] | 0.2

target: human GLP-1 receptor (human, UniProt P43220 24-463); test: cell-based or functional assay

Binder | In vitro activity relative to native peptide (%) vs. GLP-1 [%]
H[Aib]QGTFTSDVSSYLLGQQQKEFIAWLVKGGGPSSGAPPPSC [triple agonist of SEQ ID NO: 5] | 42.1
H[Aib]QGTFTSDYSKYLDGQHAQCFVAWLLAGGGPSSGAPPPS [triple agonist of SEQ ID NO: 39] | 13.9
H[Aib]QGTFTSDKSKYLDERACQDFVQWLLDGGPSSGAPPPS [triple agonist of SEQ ID NO: 40] | 75.2
Y[Aib]QGTFTSDYSKYLDEKRAKEFVQWLLDHHCSSGQPPPS (bridge 16-20) [triple agonist of SEQ ID NO: 43] | 12.6
H[Aib]QGTFTSDYSIAMDEIHQKDFVNWLLNTKC (bridge 16-20) [triple agonist of SEQ ID NO: 35] | 7.5
[Acetyl(2-(4-imidazolyl))][Aib]QGTFTSDKSSYLDERAAQDFVQWLLDGGPSSGAPPPSS (not fully specified) [triple agonist of SEQ ID NO: 38] | 2.3
Y[Aib]QGTFTSDYSKYLDEKRAKEFVQWLLDHHPSSGQPPPSC (bridge 16-20) [triple agonist of SEQ ID NO: 42] | 33.9
H[Aib]QGTFTSDYSKYLDEKRQKEFVNWLLAQKC (bridge 16-20) [triple agonist of SEQ ID NO: 34] | 19.1
H[Aib]QGTFTSDKSKYLDECAAQDFVQWLLDGGPSSGAPPPS [triple agonist of SEQ ID NO: 41] | 34.3
H[Aib]QGTFTSDVSSYLLGQQQKEFIAWLVKGC [triple agonist of SEQ ID NO: 4] | 8.5
H[Aib]QGTFTSDVSSYLDGQAAKEFIAWLVKGC [triple agonist of SEQ ID NO: 1] | 3.2
H[Aib]QGTFTSDYSKYLDECRQKEFVQWLLNGGPSSGAPPPSG (bridge 16-20) [triple agonist of SEQ ID NO: 37] | 236
H[Aib]QGTFTSDYSKYLCEKRQKEFVQWLLNGGPSSGAPPPSG (bridge 16-20) [triple agonist of SEQ ID NO: 36] | 37.4
